Measurements from US20250263499A1 (SHENGHE CHINA BIOPHARMACEUTICAL, published 2025).

B1: chimeric antibody CH-02 (antibody, human IgG1, kappa, V domains shown)
VH: EVQLQESGPDLVKPSQSLSLTCTVTGYSITSGYTWHWIRQFPGNKLEWMGHIQYTGNTKYNPSLESRISITRETSKNQFFLQLNSVTTEDTGTYYCARGSTNSNDYWGQGTSVTVSS
VL: DIVMTQSPSSLAVSVGEKVTVSCKSSQSLLYSNDQKNYLAWYQQKPGQSPKLLIYWASTRESGVPDRFTGSGSGTDFTLTITSVKAEDLAVYYCQQYFIYPLTFGAGTKLELKR
notes: ms-02 variable regions on a human IgG framework, expressed in CHO cells
B2: hu-02-L1H8 (antibody, human IgG1, kappa, V domains shown)
VH: EVQLQESGPGLVKPSQTLSLTCTVSGYSITSGYTWHWIRQFPGNKLEWMGHIQYTGNTKYNPSLESRITISRDTSKNQFSLKLSSVTAADTATYYCARGSTNSNDYWGQGTLVTVSS
VL: DIVMTQSPDSLAVSLGERATINCKSSQSLLYSNDQKNYLAWYQQKPGQPPKLLIYWASTRESGVPDRFSGSGSGTDFTLTISSLQAEDVAVYYCQQYFIYPLTFGGGTKLELKR
notes: also called humanized antibody hu-02-L1H8
B3: humanized antibody hu-02-L1H7 (antibody, human IgG1, kappa, V domains shown)
VH: EVQLQESGPGLVKPSQTLSLTCTVSGYSITSGYTWHWIRQFPGNKLEWIGHIQYTGNTKYNPSLESRITISRDTSKNQFSLKLSSVTAADTATYYCARGSTNSNDYWGQGTLVTVSS
VL: DIVMTQSPDSLAVSLGERATINCKSSQSLLYSNDQKNYLAWYQQKPGQPPKLLIYWASTRESGVPDRFSGSGSGTDFTLTISSLQAEDVAVYYCQQYFIYPLTFGGGTKLELKR
notes: Humanized from ms-02: light chain L1, heavy chain H7
B4: humanized antibody hu-02-L1H1 (antibody, human IgG1, kappa, V domains shown)
VH: QVQLQESGPGLVKPSQTLSLTCTVSGYSITSGYTWHWIRQHPGKGLEWIGHIQYTGNTKYNPSLESRVTISVDTSKNQFSLKLSSVTAADTAVYYCARGSTNSNDYWGQGTLVTVSS
VL: DIVMTQSPDSLAVSLGERATINCKSSQSLLYSNDQKNYLAWYQQKPGQPPKLLIYWASTRESGVPDRFSGSGSGTDFTLTISSLQAEDVAVYYCQQYFIYPLTFGGGTKLELKR
notes: Humanized from ms-02: light chain L1, heavy chain H1
B5: murine anti-CD24 antibody ms-01 (antibody, V domains shown)
VH: QIQLVQSGPELKKPGETVKISCKASGYIFTDYAIHWVKQAPGKGLKWMGFINTATGEPTYADDFKGRFAFSLETSASTAYLQVNSLKNEDTATYFCTSGVHWGQGTTLTVSS
VL: QIVLTQSPAIMSASLGEEITLTCSASSSVSSMHWYQQKSGTSPKLLIYSTSNLASGVPSRFSGSGSGTFYSLTISSVESEDAADYYCHHWTSYMYTFGGGTKLEIK
notes: Mouse antibody from a hybridoma
B6: humanized antibody hu-01-L2H3 (antibody, human IgG1, kappa, V domains shown)
VH: QVQLVQSGSELKKPGASVKVSCKASGYIFTDYAIHWVKQAPGQGLEWMGFINTATGEPTYADDFKGRFVFSLDTSVSTAYLQISSLKAEDTAVYFCTSGVHWGQGTLVTVSS
VL: DIQMTQSPSTLSASVGDRVTITCSASSSVSSMHWYQQKPGKAPKLLIYSTSNLASGVPSRFSGSGSGTEYTLTISSLQPDDFATYYCHHWTSYMYTFGGGTKVEIKR
notes: Humanized from ms-01: light chain L2, heavy chain H3
B7: humanized antibody hu-01-L1H4 (antibody, human IgG1, kappa, V domains shown)
VH: QVQLVQSGSELKKPGASVKVSCKASGYIFTDYAIHWVKQAPGQGLKWMGFINTATGEPTYADDFKGRFVFSLDTSVSTAYLQISSLKAEDTAVYFCTSGVHWGQGTLVTVSS
VL: DIQMTQSPSTLSASVGDRVTITCSASSSVSSMHWYQQKPGKAPKLLIYSTSNLASGVPSRFSGSGSGTEFTLTISSLQPDDFATYYCHHWTSYMYTFGGGTKVEIKR
notes: Humanized from ms-01: light chain L1, heavy chain H4
B8: humanized antibody hu-01-L2H1 (antibody, human IgG1, kappa, V domains shown)
VH: QVQLVQSGSELKKPGASVKVSCKASGYIFTDYAIHWVRQAPGQGLEWMGFINTATGEPTYADDFKGRFVFSLDTSVSTAYLQISSLKAEDTAVYYCARGVHWGQGTLVTVSS
VL: DIQMTQSPSTLSASVGDRVTITCSASSSVSSMHWYQQKPGKAPKLLIYSTSNLASGVPSRFSGSGSGTEYTLTISSLQPDDFATYYCHHWTSYMYTFGGGTKVEIKR
notes: Humanized from ms-01: light chain L2, heavy chain H1
B9: humanized antibody hu-01-L3H3 (antibody, human IgG1, kappa, V domains shown)
VH: QVQLVQSGSELKKPGASVKVSCKASGYIFTDYAIHWVKQAPGQGLEWMGFINTATGEPTYADDFKGRFVFSLDTSVSTAYLQISSLKAEDTAVYFCTSGVHWGQGTLVTVSS
VL: DIQLTQSPSTLSASVGDRVTITCSASSSVSSMHWYQQKPGKSPKLLIYSTSNLASGVPSRFSGSGSGTEYTLTISSLQPDDFATYYCHHWTSYMYTFGGGTKVEIKR
notes: Humanized from ms-01: light chain L3, heavy chain H3
B10: humanized antibody hu-01-L3H2 (antibody, human IgG1, kappa, V domains shown)
VH: QVQLVQSGSELKKPGASVKVSCKASGYIFTDYAIHWVRQAPGQGLEWMGFINTATGEPTYADDFKGRFVFSLDTSVSTAYLQISSLKAEDTAVYFCTSGVHWGQGTLVTVSS
VL: DIQLTQSPSTLSASVGDRVTITCSASSSVSSMHWYQQKPGKSPKLLIYSTSNLASGVPSRFSGSGSGTEYTLTISSLQPDDFATYYCHHWTSYMYTFGGGTKVEIKR
notes: Humanized from ms-01: light chain L3, heavy chain H2
B11: humanized antibody hu-01-L2H4 (antibody, human IgG1, kappa, V domains shown)
VH: QVQLVQSGSELKKPGASVKVSCKASGYIFTDYAIHWVKQAPGQGLKWMGFINTATGEPTYADDFKGRFVFSLDTSVSTAYLQISSLKAEDTAVYFCTSGVHWGQGTLVTVSS
VL: DIQMTQSPSTLSASVGDRVTITCSASSSVSSMHWYQQKPGKAPKLLIYSTSNLASGVPSRFSGSGSGTEYTLTISSLQPDDFATYYCHHWTSYMYTFGGGTKVEIKR
notes: Humanized from ms-01: light chain L2, heavy chain H4
B12: humanized antibody hu-01-L1H3 (antibody, human IgG1, kappa, V domains shown)
VH: QVQLVQSGSELKKPGASVKVSCKASGYIFTDYAIHWVKQAPGQGLEWMGFINTATGEPTYADDFKGRFVFSLDTSVSTAYLQISSLKAEDTAVYFCTSGVHWGQGTLVTVSS
VL: DIQMTQSPSTLSASVGDRVTITCSASSSVSSMHWYQQKPGKAPKLLIYSTSNLASGVPSRFSGSGSGTEFTLTISSLQPDDFATYYCHHWTSYMYTFGGGTKVEIKR
notes: Humanized from ms-01: light chain L1, heavy chain H3
B13: humanized antibody hu-01-L1H2 (antibody, human IgG1, kappa, V domains shown)
VH: QVQLVQSGSELKKPGASVKVSCKASGYIFTDYAIHWVRQAPGQGLEWMGFINTATGEPTYADDFKGRFVFSLDTSVSTAYLQISSLKAEDTAVYFCTSGVHWGQGTLVTVSS
VL: DIQMTQSPSTLSASVGDRVTITCSASSSVSSMHWYQQKPGKAPKLLIYSTSNLASGVPSRFSGSGSGTEFTLTISSLQPDDFATYYCHHWTSYMYTFGGGTKVEIKR
notes: Humanized from ms-01: light chain L1, heavy chain H2
B14: humanized antibody hu-01-L2H2 (antibody, human IgG1, kappa, V domains shown)
VH: QVQLVQSGSELKKPGASVKVSCKASGYIFTDYAIHWVRQAPGQGLEWMGFINTATGEPTYADDFKGRFVFSLDTSVSTAYLQISSLKAEDTAVYFCTSGVHWGQGTLVTVSS
VL: DIQMTQSPSTLSASVGDRVTITCSASSSVSSMHWYQQKPGKAPKLLIYSTSNLASGVPSRFSGSGSGTEYTLTISSLQPDDFATYYCHHWTSYMYTFGGGTKVEIKR
notes: Humanized from ms-01: light chain L2, heavy chain H2
B15: humanized antibody hu-01-L3H4 (antibody, human IgG1, kappa, V domains shown)
VH: QVQLVQSGSELKKPGASVKVSCKASGYIFTDYAIHWVKQAPGQGLKWMGFINTATGEPTYADDFKGRFVFSLDTSVSTAYLQISSLKAEDTAVYFCTSGVHWGQGTLVTVSS
VL: DIQLTQSPSTLSASVGDRVTITCSASSSVSSMHWYQQKPGKSPKLLIYSTSNLASGVPSRFSGSGSGTEYTLTISSLQPDDFATYYCHHWTSYMYTFGGGTKVEIKR
notes: Humanized from ms-01: light chain L3, heavy chain H4

Key:
[1] = biological target: CD24 on tumor cells (MCF7, SKOV3, HT55, huCD24-MDA-MB-231, CD24-SKOV3) (human) (UniProt P25063); test: flow cytometry on SKOV3 cells (MFI)
[2] = biological target: CD24 on tumor cells (MCF7, SKOV3, HT55, huCD24-MDA-MB-231, CD24-SKOV3) (human) (UniProt P25063); test: flow cytometry on MCF7 cells (MFI); fit value given for a flat control curve; unit inferred, unit from the x axis label
[3] = biological target: CD24 on tumor cells (MCF7, SKOV3, HT55, huCD24-MDA-MB-231, CD24-SKOV3) (human) (UniProt P25063); test: flow cytometry on SKOV3 cells (MFI); fit value given for a flat control curve; unit inferred, unit from the x axis label
[4] = biological target: CD24 on tumor cells (MCF7, SKOV3, HT55, huCD24-MDA-MB-231, CD24-SKOV3) (human) (UniProt P25063); test: flow cytometry on huCD24-MDA-MB-231 cells (MFI); fit value given for a flat control curve; unit inferred, unit from the x axis label
[5] = biological target: T1, human CD24 protein (ACRO) (human, UniProt P25063 27-59); test: BLI (ForteBio Octet RED96e), antibody immobilised, human CD24 protein as analyte
T1 construct: also called analyte human CD24 protein
T1 chain (looked up): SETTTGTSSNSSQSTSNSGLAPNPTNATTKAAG
Procedure: ForteBio […] (BLI) was used to detect the affinity of humanized antibodies. The sample to be tested (solidified) was diluted to 20 μg/mL with 0.02% PBST (buffer). The analyte human CD24 protein (ACRO) was diluted to 100 nM with 0.02% PBST (buffer) as the initial concentration, and then diluted by double gradient for 7 gradients starting from this concentration, and a negative control (buffer) was performed.
The molecular interaction analysis instrument (ForteBio; Octet RED96e) was operated, and 200 μL of curing buffer (0.02% PBST) was added to a pre-wetted plate, and the sensor was pre-wetted for 5-10 min. Diluted samples and other reagents for assay were added into wells in the sample plate corresponding to the pre-wetted sensor.

[6] = biological target: T2, CD24 on tumor cells (MCF7, SKOV3, HT55, huCD24-MDA-MB-231, CD24-SKOV3) (human, UniProt P25063 27-59); test: flow cytometry on huCD24-MDA-MB-231 cells (MFI); table under the graph prints no unit, unit from the x axis label
T2 construct: whole, on cells; The cell line of each result is named under assay
T2 chain (looked up): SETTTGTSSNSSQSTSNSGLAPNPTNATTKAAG

[7] = biological target: T2, CD24 on tumor cells (MCF7, SKOV3, HT55, …); test: flow cytometry on MCF7 cells (MFI)
[8] = biological target: T2, CD24 on tumor cells (MCF7, SKOV3, HT55, …); test: flow cytometry on MCF7 cells (MFI)
Procedure: The commercial antibody SN3 (ABCOM; ab134375) and IgG1 isotype control were used as control. MCF7, SKOV3, HT55 or huCD24-MDA-MB-231 cells were taken and transferred to a centrifuge tube, and centrifuged at 1000 rpm for 5 min. 100 μL of MCF7, SKOV3, HT55, or huCD24-MDA-MB-231 cells were spread in a 96 U plate, respectively, and washed twice with PBS. 100 μL of the fusion supernatant was added, and diluted for 8 gradients. Cells were incubated at 4° C. for 60 minutes, and then washed twice with excess FACS buffer. Cells were resuspended in 100 μL of FACS buffer and sheep anti-mouse secondary antibody-FITC (ABCOM; ab6785) was added to the samples, incubated for 30 minutes and washed twice with excess FACS buffer. Cells were fixed in fixation buffer and subsequently analyzed by flow cytometry.

Molecule	Kd [5] [nM]	also measured
commercial antibody SN3 (ABCOM; ab134375)	–	EC50 (read off the curve) [1]: 2 µg/mL
IgG1 isotype control (antibody)	–	EC50 [2]: 0.142 µg/mL; EC50 [3]: 49.7 µg/mL; EC50 [4]: 3.49 µg/mL
B1	11.9	EC50 [6]: 4.03 µg/mL
B2	–	binding result [7]: binds
B3	20.5	EC50 [6]: 3.42 µg/mL
B4	62.7	EC50 [6]: 2.08 µg/mL
B5	–	EC50 (read off the curve) [8]: ~2 µg/mL
B6	9.03	–
B7	48.2	–
B8	–	binding result [5]: no binding (tested: 100 nM (highest analyte concentration))
B9	12.4	–
B10	8.29	–
B11	39.1	–
B12	10	–
B13	5.58	–
B14	10.5	–
B15	41.2	–
